According to patent US20250084158A1 (ABL BIO, published 2025):
Values belong to the binder of their own block, whether it stands above or below them.

Legend:
human CLL-1 on cells [1] = molecular target: T1, human CLL-1 on cells (human, UniProt Q5QGZ9 1-265); test: cell-based or functional assay
T1 sequence (looked up): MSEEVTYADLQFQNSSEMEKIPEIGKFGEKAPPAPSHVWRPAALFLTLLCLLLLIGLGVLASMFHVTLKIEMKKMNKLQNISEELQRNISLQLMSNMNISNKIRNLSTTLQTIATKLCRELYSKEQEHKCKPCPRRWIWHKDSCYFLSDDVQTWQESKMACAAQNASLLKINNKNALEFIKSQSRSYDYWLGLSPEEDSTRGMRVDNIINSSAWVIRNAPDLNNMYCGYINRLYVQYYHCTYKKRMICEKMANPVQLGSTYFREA

human CLL-1 on cells [2] = molecular target: T1, human CLL-1 on cells; test: cell-based or functional assay; remark: listed apart in the source
human CLL-1 on cells [3] = molecular target: T1, human CLL-1 on cells; test: cell-based or functional assay; remark: listed apart in the source
human CLL-1 on cells [4] = molecular target: T1, human CLL-1 on cells; test: cell-based or functional assay; remark: listed apart in the source
human CLL-1 on cells [5] = molecular target: T1, human CLL-1 on cells; test: FACS (PE-anti-human IgG), U937 cells
Experimental: (§1) To evaluate the tumor antigen binding property of the bispecific antibody of Example 3, the binding ability of CLL1 targeting portions of 33C2/CD3-R2 and 33C2/CD3-R3 to CLL1 expressed in mammalian cells were analyzed by using FACS.
(§2) Briefly, CLL1 positive cells (U937 and HL60) were incubated with 33C2/CD3-R2 and 33C2/CD3-R3 antibodies. After washing with a FACS buffer (1% BSA in PBS), the PE-anti-human IgG antibodies were added to each well and incubated at 4° C. for 60 min. The MFI (Median Fluorescence Intensity) of PE (phycoerythrin) was evaluated by FACS Calibur. BsAb mock/CD3, which has an anti-CD3 antigen-binding fragment at one arm, and no antigen-binding fragment at another arm, was used as a control group.

human CLL-1 on cells [6] = molecular target: T1, human CLL-1 on cells; test: FACS (PE-anti-human IgG), HL-60 cells
Experimental: as §1, §2

hFc-Human CLL1 = molecular target: T2, hFc-Human CLL1 (human); test: ELISA, coated antigen
T2 construct: Human CLL1 with N-terminal human IgG1 Fc, made in-house; also called hFc-huCLL1
Experimental: Antibody candidates of Example 1.2. were analyzed to compare the ligand binding activity by ELISA, using huCLL1-His and hFc-huCLL1 as ligands.
(§3) Briefly, the antigen (ligand) was coated overnight at 4VC. The antigen coated plate was blocked with 1% BSA in PBS at 4VC for 2 hr and incubated with antibodies at 4° C. for 2 hrs. To find out the EC₅₀ (nM) of each antibody, 4-fold serial dilutions were prepared from an antibody solution of a concentration of 50 nM to 0.2 pM and diluted antibodies were treated to each well, and the plate was washed with 1×PBST. Then Goat anti-Human IgG F(ab′)2 cross-adsorbed secondary antibody conjugated with HRP (horseradish peroxidase) (Thermo, 31414) was added to each well and incubated at 4° C. for 1 hr. After wash, a TMB (3,3′,5,5′-tetramethylbenzidine) substrate (Sigma, T0440) was added to each well and the OD at 450 nm was measured by an ELISA plate reader.

human CLL-1 on cells [7] = molecular target: T1, human CLL-1 on cells; test: FACS, HL60 cells (2nd Ab only 5.09)
Experimental: (§4) To evaluate cell binding property, the chimeric antibody candidates of Example 1.2. were analyzed in CLL1 negative cells (HEK293E and Jurkat) and various CLL1 expressing cancer cells by using FACS.
(§5) Briefly, cells were incubated with antibodies at 4° C. for 1 hr. Firstly, the cells were washed with an assay buffer (1% BSA in PBS). Then, an anti-human IgG Fc conjugated with FITC (Fluorescein isothiocyanate) (Sigma, F9512) was added to each well and incubated at 4° C. for 1 hr. After wash, the MFI (Median Fluorescence Intensity) of FITC was measured by BD FACS Cal ibur (BD Biosciences).

human CLL-1 on cells [8] = molecular target: T1, human CLL-1 on cells; test: FACS, PL21 cells (2nd Ab only 2.82)
Experimental: as §4, §5

human CLL-1 on cells [9] = molecular target: T1, human CLL-1 on cells; test: FACS, U937 cells (2nd Ab only 4.77)
Experimental: as §4, §5

human CLL-1 on cells [10] = molecular target: T1, human CLL-1 on cells; test: FACS, EOL-1 cells (2nd Ab only 2.53)
Experimental: as §4, §5

human CLL-1 on cells [11] = molecular target: T1, human CLL-1 on cells; test: FACS, OCI-AML2 cells (2nd Ab only 3.28)
Experimental: as §4, §5

human CLL-1 on cells [12] = molecular target: T1, human CLL-1 on cells; test: FACS, huCLL1_293E cells (2nd Ab only 5.05)
Experimental: as §4, §5

hFc-Cynomolgus CLL1 = molecular target: T3, hFc-Cynomolgus CLL1 (cynomolgus); test: ELISA, 50 and 100 ng/well coated antigen; stronger than reference 6E7
T3 construct: Cynomolgus CLL1 with N-terminal human IgG1 Fc, made in-house
Experimental: as §3
Continuously, antibody candidates of Example 1.2. were analyzed to compare the ligand binding activities by ELISA, using 50 ng/well and 100 ng/well of hFc-Cynomolgus CLL1 as a ligandin the same manner as described above. Genentech's anti-CLL-1 antibody 6E7 was used as a reference.

T3 sequence (chain, as listed by the source limits assumed): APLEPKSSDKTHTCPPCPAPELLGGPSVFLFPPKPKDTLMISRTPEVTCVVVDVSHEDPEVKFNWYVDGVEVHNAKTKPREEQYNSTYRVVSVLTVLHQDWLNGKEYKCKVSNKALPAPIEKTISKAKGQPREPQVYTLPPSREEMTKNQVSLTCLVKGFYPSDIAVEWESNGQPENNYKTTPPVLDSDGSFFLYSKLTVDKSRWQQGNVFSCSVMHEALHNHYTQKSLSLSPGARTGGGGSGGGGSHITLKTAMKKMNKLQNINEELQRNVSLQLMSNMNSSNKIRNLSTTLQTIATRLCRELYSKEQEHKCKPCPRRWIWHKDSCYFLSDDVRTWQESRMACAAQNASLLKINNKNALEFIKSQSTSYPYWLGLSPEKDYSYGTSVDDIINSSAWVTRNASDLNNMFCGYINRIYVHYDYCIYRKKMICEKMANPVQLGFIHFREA

T-cell activation (NFAT reporter effector cells) with HL-60, EC50 (human CLL-1 on cells [1]): 30 pM | T-cell activation (NFAT reporter effector cells) with U937, EC50 (human CLL-1 on cells [1]): 16 pM | CD25 on CD4 T cells, HL60 targets, EC50 (human CLL-1 on cells [2]): 1.15 pM | CD25 on CD8 T cells, HL60 targets, EC50 (human CLL-1 on cells [2]): 1.09 pM | CD69 on CD4 T cells, HL60 targets, EC50 (human CLL-1 on cells [2]): 0.54 pM | CD69 on CD8 T cells, HL60 targets, EC50 (human CLL-1 on cells [2]): 0.36 pM | U937 cell lysis (so in the source); Table 21 is the HL60 table by paragraph 356), EC50 (human CLL-1 on cells [2]): 0.86 pM | CD25 on CD4 T cells, U937 targets, EC50 (human CLL-1 on cells [3]): 0.39 pM | CD25 on CD8 T cells, U937 targets, EC50 (human CLL-1 on cells [3]): 0.3 pM | CD69 on CD4 T cells, U937 targets, EC50 (human CLL-1 on cells [3]): 0.21 pM | CD69 on CD8 T cells, U937 targets, EC50 (human CLL-1 on cells [3]): 0.14 pM | U937 cell lysis, EC50 (human CLL-1 on cells [3]): 0.05 pM | specific lysis of HL-60, PBMC donor ABL06, EC50 (human CLL-1 on cells [4]): 4.42 pM | specific lysis of HL-60, PBMC donor ABL09, EC50 (human CLL-1 on cells [4]): 1.27 pM | specific lysis of HL-60, PBMC donor ABL10, EC50 (human CLL-1 on cells [4]): 0.86 pM | specific lysis of HL-60, PBMC donor ABL15, EC50 (human CLL-1 on cells [4]): 3.16 pM | specific lysis of HL-60, PBMC donor ABL16, EC50 (human CLL-1 on cells [4]): 5.14 pM | specific lysis of HL-60, PBMC donor ABL17, EC50 (human CLL-1 on cells [4]): 5.85 pM | specific lysis of HL-60, PBMC donor ABL18, EC50 (human CLL-1 on cells [4]): 3.97 pM | specific lysis of HL-60, PBMC donor ABL19, EC50 (human CLL-1 on cells [4]): 9.09 pM | specific lysis of U937, PBMC donor ABL06, EC50 (human CLL-1 on cells [4]): 0.54 pM | specific lysis of U937, PBMC donor ABL09, EC50 (human CLL-1 on cells [4]): 0.13 pM | specific lysis of U937, PBMC donor ABL10, EC50 (human CLL-1 on cells [4]): 0.05 pM | specific lysis of U937, PBMC donor ABL15, EC50 (human CLL-1 on cells [4]): 0.16 pM | specific lysis of U937, PBMC donor ABL16, EC50 (human CLL-1 on cells [4]): 0.05 pM | specific lysis of U937, PBMC donor ABL17, EC50 (human CLL-1 on cells [4]): 1.1 pM | specific lysis of U937, PBMC donor ABL18, EC50 (human CLL-1 on cells [4]): 1.63 pM | specific lysis of U937, PBMC donor ABL19, EC50 (human CLL-1 on cells [4]): 0.32 pM | EC50 (human CLL-1 on cells [5]): 230 pM | EC50 (human CLL-1 on cells [6]): 90 pM
B1: 33C2/CD3-R2 (bispecific antibody, human IgG1, kappa, N297A)
heavy 1: not shown
heavy 2: QVQLVQSGAEVKKPGASVKVSCKASGYSFTGYAMNWVRQAPGQRLEWIGLINPYNGGAMYNQKFKGRATLTVDTSASTAYMELSSLRSEDTAVYYCARDYRYEGHLDYWGQGTLVTVSSASTKGPSVFPLAPSSKSTSGGTAALGCLVKDYFPEPVTVSWNSGALTSGVHTFPAVLQSSGLYSLSSVVTVPSSSLGTQTYICNVNHKPSNTKVDKKVEPKSCDKTHTCPPCPAPELLGGPSVFLFPPKPKDTLMISRTPEVTCVVVDVSHEDPEVKFNWYVDGVEVHNAKTKPREEQYASTYRVVSVLTVLHQDWLNGKEYKCKVSNKALPAPIEKTISKAKGQPREPQVCTLPPSREEMTKNQVSLSCAVKGFYPSDIAVEWESNGQPENNYKTTPPVLDSDGSFFLVSKLTVDKSRWQQGNVFSCSVMHEALHNHYTQKSLSLSPGK
light 1: EIVLTQSPATLSLSPGERATLSCSATSSVSYMHWYQQKPGQAPRRWIYDTSKLASGIPARFSGSGSGTSYTLTISSLEPEDFAVYYCQQWSSDSPTFGQGTKLEIKRTVAAPSVFIFPPSDEQLKSGTASVVCLLNNFYPREAKVQWKVDNALQSGNSQESVTEQDSKDSTYSLSSTLTLSKADYEKHKVYACEVTHQGLSSPVTKSFNRGEC
light 2: DIVMTQSPDSLAVSLGERATINCKSSQSLLNSRTRKNYLAWYQQKPGQPPKLLIYWASTRQSGVPDRFSGSGSGTDFTLTISSLQAEDVAVYYCTQSHTLRTFGGGTKVEIKPDIQNPDPAVYQLRDSKSSDKSVCLFTDFDSQTQVSQSKDSDVYITDKCVLDMRSMDFKSNSAVAWSQKSDFACANAFQNSIIPEDTFFPSPESS
notes: WuXiBody format, 2+1: Heavy Chain-1 = CLL1 Fab heavy, linker, CD3 heavy (TCR constant region), Fc knob; Heavy Chain-2 = CLL1 Fab heavy, Fc hole; Two CLL1 light chains follow from the two CLL1 Fab heavy parts; also called anti-CLL-1/anti-CD3 bispecific antibody with (G4S)2 linker

binding result (hFc-Human CLL1): binds | MFI(FL1-H) (human CLL-1 on cells [7]): 19.1 | MFI(FL1-H) (human CLL-1 on cells [8]): 38.8 | MFI(FL1-H) (human CLL-1 on cells [9]): 48.1 | MFI(FL1-H) (human CLL-1 on cells [10]): 3.6 | MFI(FL1-H) (human CLL-1 on cells [11]): 19.3 | MFI(FL1-H) (human CLL-1 on cells [12]): 77.7 | binding result (hFc-Cynomolgus CLL1): binds
B2: ch33C2(NA) (antibody, human IgG1, kappa, N297A, V domains shown)
VH: EVQLQQSGPELVKPGASMKISCKASGYSFTGYAMNWVKQSHGKNLEWIGLINPYNGGAMYNQKFKGKATLTVDKSTSTAYMELLSLTSEDSAVYYCARDYRYEGHLDYWGQGTTLTVSS
VL: QIVLTQSPVIMSASPGEKVTMTCSATSSVSYMHWYQQKSGTSPKRWIYDTSKLASGVPVRFSGSGSGTSYSLTISRMEAEDAATYYCQQWSSDSPTFGVGTKLELKR
notes: also called chimeric antibody of 33C2
